The supplement of paper PMC9170038

Tested on: MS2 coat protein
Assay: apparent KD of MS2 coat protein; designed switch direction (-1 OFF switch, 1 ON switch): 1; higher = weaker reporter binding
Summary of the method: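 The reported apparent KD is a per-design median over clusters, from curve fits of normalised cluster fluorescence. Protein titrations used SNAP-549-labelled MS2 coat protein, doubled from 0.7 or 1.5 nM to 3 µM, in Tris-HCl pH 7.5 buffer with KCl, MgCl2, BSA, DTT, tRNA and Tween-20, with no input, 200 uM small-molecule ligand, or an oligonucleotide input. The RNA switches were transcribed on Illumina chips by stalled E. coli RNA polymerase.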

[1] = Eterna round: R95, input ligand: FMN 200 uM
[2] = Eterna round: R95, input ligand: microRNA oligo, concentration not stated
[3] = Eterna round: R95, input ligand: none
[4] = input ligand: microRNA oligo, concentration not stated

Row | Sequence | apparent KD of MS2 coat protein [1] | apparent KD of MS2 coat protein [2] | apparent KD of MS2 coat protein [3] | apparent KD of MS2 coat protein (input ligand: FMN 200 uM) | apparent KD of MS2 coat protein [4] | apparent KD of MS2 coat protein (input ligand: none)
1 | AUAAAACAUGAGGAUCACCCAUGUCAACAAAGUCGAGGAUAUGGUCAAAUAAAAUAAGAACCAGAAGGCGAAUAAU [salish99_ss1_r3_029] (puzzle: Same State 1) | 17.8 nM | 26.3 nM | 25.3 nM | – | – | –
2 | UUAAUAAUGUAAGGAUAUACAUGAGGAUUUCUCGUAGAAGGUACAUUACAUGAGGAUCACCCAUGUGGGUGUCAGAAGACGCCA [Mat - Same State NG 1 - JL mod - D13] (Eterna round: R96, puzzle: Same State NG 1) | – | – | – | 143 nM | 953 nM | 275 nM
3 | GCUGGAAACCACAUGAGGAUCACCCAUGUUCCGGAAACGGCACAGGAUAUCUGUCCGAAAAGGUCAGAGAAGGGUGAAACCAGC [Fiskers NG3ss - 83] (Eterna round: R96, puzzle: Same State NG 3) | – | – | – | 263 nM | 114 nM | 188 nM
4 | GCCGCGUUUCGCGCCUACAUGAGGAUCACCCAUGUUUGUCGGCAGGAUAUCGUCCGCUCUGCGGGCGAGAAGGGCUAUUGUGGU [salish99_SSNG3_R04_027] (Eterna round: R96, puzzle: Same State NG 3) | – | – | – | 28.8 nM | 17 nM | 24.5 nM
5 | GGCCUCUGUCAAGGAUAUGCUACCGUUUCGGUAGCAGAAGGUGAUCACAUGCGGUUCGCCCAUGUUUAGGCCAACAGGCCCGCC (Eterna round: R96, puzzle: Same State NG 1) | – | – | – | 25.1 nM | 5.14 nM | 6.87 nM
6 | UGGCUCAGACGAGGAUAUGAUCAUGGCGCUUCGGCGCAUACAUGAGGAUCACCCAUGUAAAGUGAUCAGAAGGUGUCUGAGCCA [SSNG2/7-B2] (Eterna round: R96, puzzle: Same State NG 2) | – | – | – | 13 nM | 11.6 nM | 14.5 nM
7 | GUGGUCAAUCAAGGAUAUGGAGCCUUAUUGGCUCCAGAAGGUGGGACAUGAGGAUCACCCAUGUGGCAGUGGUCAAAUGACCAC [Fiskers NG1ss - 34] (Eterna round: R96, puzzle: Same State NG 1) | – | – | – | 149 nM | 172 nM | 164 nM
8 | AGCUAGUACCGAGGAUAUACGUACAUGAGGAUCACCCAUGUAUACAUGAUUAAAUGAGACUACAUGUAGAAGGCGGUACUAGCA [Mat - Same State NG 2 - JL mod - D48] (Eterna round: R96, puzzle: Same State NG 2) | – | – | – | 15 nM | 27.1 nM | 48.1 nM
9 | AAGAAAGUUUACGAGGAUAUGUUCCGCAUAACAUGAGGAUCACCCAUGUGAACAAGAAAGGCGACGCAGAAGGCGUGAGCAAAGA [Atanansori] (Eterna round: R96, puzzle: Same State 2) | – | – | – | 42.4 nM | 152 nM | 219 nM
10 | AGAUGUUAAUCAGGAUAUGGGCACAUGAGGAUCACCCAUGUAACGUAGAUACGAUGUGGUCAAGUCUAGAAGGGAUGGCUAACA [SameState NG2 #79] (Eterna round: R96, puzzle: Same State NG 2) | – | – | – | 49.9 nM | 68.2 nM | 90.7 nM
11 | GGAGCCAAGGCAGGAUAUUCAUAUUAAUAACACAUGAGGAUCACCCAUGUGGCCAGAAGGCCUUGGGAGAAGGGCCAUGGCUCG [Xeonanis - 13 mod9] (Eterna round: R96, puzzle: Same State NG 2) | – | – | – | 28 nM | 57.7 nM | 95.3 nM
12 | GCAAACACAUGAGGAUCACCCAUGUGGAAAGAGCAAUUAGGCUAGGAUAUUCAUGUCGUUUGCAAGAAGAAGGAGCCAUAGUGG [Eternabot solution 20] (Eterna round: R96, puzzle: Same State NG 3) | – | – | – | – | 205 nM | –
13 | ACAUGAGGAUCACCCAUGUAUGCUCAGGAAACUGUGCAUCGUGAGGAUAUGGAUCCUAAUUGGAUCCAGAAGGCAUGUAUUAUU [Fiskers NG3ss - 27] (Eterna round: R96, puzzle: Same State NG 3) | – | – | – | 321 nM | 23.9 nM | 153 nM
14 | CUAUGACAUGAGGAUCACCCAUGUGAUAAUUUCAUAGGAUAUACGGCGCCGUUAAGGGCCGUAGAAGGGUGAUCGA [Veonti] (puzzle: Same State 1) | 35.4 nM | 30.7 nM | 22.9 nM | – | – | –
15 | UUAAUAAAUCAAGGAUAUCACGUCGAUUAGACGUGAGAAGGUGAUCAUAACAUGAGGAUCACCCAUGUAUUACAUGAAUAUUAA [SSNG1/1-B2] (Eterna round: R96, puzzle: Same State NG 1) | – | – | – | 1810 nM | 721 nM | 659 nM
